Results published in patent US20240424129A1, “RECOMBINANT FUSION ANTIBODY, AND ANTIBODY-DRUG CONJUGATE AND USE THEREOF” (SUN YAT-SEN UNIVERSITY, priority 2021, published 2024).
Non-standard residues stand in square brackets, D forms with d. Residues, ends and D or L forms follow the SMILES beside them. Dolaproine = CO[C@@H]([C@@H]1CCCN1)[C@@H](C)C(=O)O; Dil = CC[C@H](C)[C@H](NC)[C@@H](CC(=O)O)OC; NMeV = CN[C@H](C(=O)O)C(C)C

B1: Fused VHH8: anti-HER2 nanobody fused with P7, His6 tag after the peptide, SEQ ID NO: 40 (protein)
VHH: EVQLVESGGGLVQAGGSLRLSCAASGITFSINTMGWYRQAPGKQRELVALISSIGDTYYADSVKGRFTISRDNAKNTVYLQMNCLKPEDTAVYYCKRFRTAAQGTDYWGQGTQVTVSSLPETGGGSDEDLLHIHHHHHH
modifications: linker, P7 peptide, His6 tag
B2: Fused VHH8-MMAF (conjugate)
VHH: B1 VHH
B3: Fused VHH7: anti-HER2 nanobody fused with lysosome-targeting peptide P7, SEQ ID NO: 39 (protein)
chain: EVQLVESGGGLVQAGGSLRLSCAASGITFSINTMGWYRQAPGKQRELVALISSIGDTYYADSVKGRFTISRDNAKNTVYLQMNCLKPEDTAVYYCKRFRTAAQGTDYWGQGTQVTVSSHHHHHHLPETGGGSDEDLLHI

Tests used:
Type in all cases: cell-based, human
[1] = test system: MDA-MB-231 cells; assay: In-vitro cytotoxicity, HER2-negative negative control; conditions: MDA-MB-231, FIG. 15
Experimental: (§1) In this example, human breast cancer cell line SKBR3 with high expression of HER2 and human ovarian cancer cell line SKOV3 with high expression of HER2 were chosen to evaluate the ability of the recombinant-fusion-antibody-drug conjugates to inhibit the growth of cancer cells. The recombinant-fusion-antibody-drug conjugates of different concentrations were added to a 96-well plate seeded with SKBR3 or SKOV3 cells. After treatment for 48 h, the viability of cells was calculated using a CCK8 kit.
In addition, in this example, the HER2-negative MDA-MB-231 cells were chosen as a negative control to compare the ability of fused VHH7-MMAF, fused VHH8-MMAF, VHH0-MMAF, VHH0, and MMAF to inhibit the growth of cancer cells.

[2] = test system: SKOV3 cells; assay: In-vitro cytotoxicity, CCK8 cell viability; conditions: SKOV3, 48 h, CCK8, mean n=3; Table 9
Experimental: as §1
(§2) SKBR3 and SKOV3 cells were chosen to evaluate the ability of the recombinant-fusion-full-length-antibody-drug conjugates to inhibit the growth of cancer cells. […] The half-maximal inhibitory concentration IC50 was calculated.

[3] = test system: SKBR3 cells; assay: In-vitro cytotoxicity, CCK8 cell viability; conditions: SKBR3, 48 h; for IC50: CCK8, mean n=3
Experimental: as §1
Cell viability was measured using different concentrations of MMAF, VHH0-MMAF, or different recombinant-fusion-nanobody-drug conjugates (fused VHH1-MMAF to fused VHH26-MMAF). The half-maximal inhibitory concentration IC50 was calculated (FIGS. 14A-14C, and Table 7). FIGS. 14A, 14B and 14C respectively show the viability of SKBR3 cells treated with the recombinant-fusion-nanobody-drug conjugates, including fused VHH1-MMAF to fused VHH6-MMAF, fused VHH7-MMAF to fused VHH22-MMAF, and fused VHH23-MMAF to fused VHH26-MMAF. […] Data are expressed as the mean (n=3).
as §2

[4] = test system: SKBR3 cells; assay: Colocalization of recombinant fusion antibodies with lysosomes by confocal laser scanning microscopy; conditions: TAMRA-labeled, 4 h, SKBR3, LysoTracker Green; compared with non-fused VHH0
Excerpt: Confocal laser scanning microscope (CLSM) was used to analyze the colocalization of the recombinant fusion antibodies with the lysosome. The antibody-drug conjugate would be transported and processed in the endocytotic pathway as follows: once the antibody-drug conjugate binds to the cell-surface tumor antigen, it is internalized into endosomes, which subsequently mature and fuse with lysosomes. In the lysosomes, the acidic environment and specific proteases (e.g., cathepsin B) degrade the ADC, thus leading to the release of the drug. The free drug traverses the lysosomal membrane, reaches the cytosol and binds to its target, such as microtubule or DNA, thus ultimately triggering cell death. Therefore, the efficacy of an antibody-drug conjugate relies on its internalization and lysosomal trafficking.
In this example, SKBR3 cells were treated with TAMRA-labeled antibodies, including VHH0, fused VHH1-VHH26, mAb0, or fused mAb1-mAb3, for 4 h. The nuclei of SKBR cells were stained by Hoechst 33342 and the lysosomes of cells were stained by LysoTracker Green. The lysosome-trafficking activity of VHH0, fused VHH1-VHH26, mAb0, and fused mAb1-mAb3 was evaluated by confocal laser scanning microscopy. All images were presented under identical conditions. For quantitative analysis, the same threshold value was set for all images.

[5] = test system: SKBR3 cells; assay: Internalization of TAMRA-labeled recombinant fusion antibodies by flow cytometry; conditions: 2 μM, 6 h, acid wash, compared with non-fused VHH0
Experimental: The recombinant fusion antibody was labeled a fluorescent molecule and the internalization activity of the labeled antibody was evaluated by flow cytometry.
The procedure included the following steps: First, 5 mM tris (2-carboxyethyl) phosphine (TCEP; Thermo Fisher Scientific) was added to reduce the sulfhydryl group of VHH0 and fused VHH1-VHH26 respectively for approximately 30 min at room temperature, then TCEP was removed by buffer-exchanging with PBS containing 1 mM ethylenediaminetetraacetic acid (EDTA). Next, 2 eq of Maleimide-PEG3-TAMRA was added to the antibody solution and the resulting solution was incubated at 4° C. for 2 h. Lastly, the excess small molecules were removed by buffer-exchanging to obtain TAMRA-labeled VHH0 and fused VHH1-VHH26.
In this example, SKBR3, a human breast cancer cell line with a high expression level of HER2, was used as a model system. […] SKBR3 cells were incubated with TAMRA-labeled antibodies for 6 h, and subsequently washed with acid to remove bound antibodies on the cell membrane, and the fluorescence intensity was analyzed by flow cytometry.

Molecule | cytotoxicity in HER2-negative cells [1] | IC50 [2] | maximal killing ([3]; CCK8) | IC50 ([3]; Table 7) | IC50 ([3]; Table 8) | colocalization of nanobodies with lysosomes / lysosomal trafficking [4] | internalization ability of nanobodies (mean cell fluorescence) [5]
CC[C@H](C)[C@@H]([C@@H](CC(=O)N1CCC[C@H]1[C@H](OC)[C@@H](C)C(=O)N[C@@H](Cc1ccccc1)C(=O)O)OC)N(C)C(=O)[C@@H](NC(=O)[C@@H](NC)C(C)C)C(C)C [MMAF, monomethyl auristatin F, reference compound] (H-[NMeV]V[Dil][Dolaproine]F-OH) | significant cell death | 37.4 nM | about 50% | 53.2 nM | 37.4 nM | – | –
B1 | – | – | – | – | – | No significant difference in lysosomal trafficking | no significant difference in the internalization ability between fused VHH7 and fused VHH8
B2 | none of the substances are cytotoxic | – | – | 0.319 nM | – | – | –
B3 | – | – | – | – | – | No significant difference in lysosomal trafficking | no significant difference in the internalization ability between fused VHH7 and fused VHH8
